Source: patent publication US20240392024A1 (SHANGHAI CELGEN BIO PHARMACEUTICAL, published 2024)
Numbering of substitutions follows the chain as printed. Several values for one entry are separate records, joined by “and”; a condition that tells them apart may be missing. Identical values can stand only once.

T1: TNFR2-His (Sino Biological, 10417-H08H, NP_001057.1 Met1-Asp257, with multi-histidine tag expressed on … (human, UniProt P20333 23-257))
T1 construct: range 1-257; Bought protein; also called recombinant human TNFR2 protein; TNFR2-His antigen; not shown: C-terminal multi-histidine tag
T1 sequence (looked up): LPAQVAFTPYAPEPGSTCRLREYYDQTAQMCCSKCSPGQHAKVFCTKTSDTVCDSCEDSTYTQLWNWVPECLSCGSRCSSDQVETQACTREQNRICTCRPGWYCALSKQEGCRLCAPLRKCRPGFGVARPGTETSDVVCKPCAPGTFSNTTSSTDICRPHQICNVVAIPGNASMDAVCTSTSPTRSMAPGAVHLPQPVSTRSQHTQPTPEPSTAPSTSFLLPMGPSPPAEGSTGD

T2: human TNFR2 on the cell membrane (human, UniProt P20333 23-461)
T2 construct: whole, on cells; One molecule for all cell formats; also called TNFR2-CHO cells; CHO-TNFR2
T2 sequence (looked up): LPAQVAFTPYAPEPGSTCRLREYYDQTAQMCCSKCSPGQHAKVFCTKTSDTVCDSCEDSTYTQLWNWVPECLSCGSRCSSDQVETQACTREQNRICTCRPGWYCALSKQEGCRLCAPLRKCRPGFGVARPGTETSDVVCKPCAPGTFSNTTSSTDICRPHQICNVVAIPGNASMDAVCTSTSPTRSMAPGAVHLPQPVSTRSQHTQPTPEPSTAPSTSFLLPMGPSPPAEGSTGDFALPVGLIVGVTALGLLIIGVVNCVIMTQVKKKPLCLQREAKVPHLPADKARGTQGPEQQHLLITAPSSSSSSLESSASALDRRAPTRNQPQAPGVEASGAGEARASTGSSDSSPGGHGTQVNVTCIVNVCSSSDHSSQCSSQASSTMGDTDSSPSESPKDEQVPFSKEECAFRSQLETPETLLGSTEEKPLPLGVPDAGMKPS

B1: 12E12-huVH6 + huVL2(P08937) (antibody, V domains shown)
VH: QVQLVQSGAEVKKPGASVKVSCKASGYTITDFYIHWVRQAPGQGLEWIGRVDPEDGNTEYAPNFQDRATMTTDTSTSTAYLELSSLRSEDTAVYYCSTWDGFSYFDYWGQGTTVTVSS
VL: QAVVTQEPSLTVSPGGTVTLTCRSSTGPVTTNNYANWVQQKPGQAFRGLIGGTNDRAPGVPARFSGSLLGGKAALTLSGAQPEDEAEYYCALWYRNHWVFGGGTKLTVL
notes: Humanized 12E12
B2: 12E12-huVH7 + huVL2(P08938) (antibody, V domains shown)
VH: B1 VH with Q43K, I48M, P62Q, N63K, D66G, A68V, S77D, L81M
VL: B1 VL
notes: Humanized 12E12
B3: 12E12-huVH7 + huVL4(P08941) (antibody, V domains shown)
VH: B1 VH with Q43K, I48M, P62Q, N63K, D66G, A68V, S77D, L81M
VL: EAVVTQSPATLSLSPGERATLSCRSSTGPVTTNNYANWVQQKPGQAFRGLIGGTNDRAPGIPARFSGSGSGTDTTLTISSLQPEDFAVYYCALWYRNHWVFGGGTKLEIK
notes: Humanized 12E12
B4: 12E12-huVH8 + huVL4(P08942) (antibody, V domains shown)
VH: EVQLVQSGAEVKKPGATVKISCKVSGYTITDFYIHWVQQAPGKGLEWMGRVDPEDGNTEYAPNFQDRVTITADTSTDTAYMELSSLRSEDTAVYYCSTWDGFSYFDYWGQGTTVTVSS
VL: B3 VL
notes: Humanized 12E12
B5: 12E12-huVH8 + huVL2(P08939) (antibody, V domains shown)
VH: B4 VH
VL: B1 VL
notes: Humanized 12E12
B6: 12E12-huVH6 + huVL4(P08940) (antibody, V domains shown)
VH: B1 VH
VL: B3 VL
notes: Humanized 12E12
B7: 33C12huVH2 + huVL2(P07301) (antibody, V domains shown)
VH: EVQLVESGGGLVKPGGSLRLSCAASGFTFSDYTMSWVRQAPGKGLEWVATISTGGSYTYYPDSVKGRFTISRDNAKNTLYLQMSSLRAEDTAVYYCARDGGYDGDYFDYWGQGTTVTVSS
VL: ENVLTQSPATLSLSPGERATLSCRASSSVSSSYLHWYQQKPGQAPRLWIYRTSNLASGVPARFSGSGSGTDFTLTISRLEPEDFAVYYCQQYSGYPLTFGGGTKLEIK
notes: Humanized 33C12
B8: 33C12huVH3 + huVL2(P07302) (antibody, V domains shown)
VH: B7 VH with P61A, T78S, S84N
VL: B7 VL
notes: Humanized 33C12
B9: 33C12huVH2 + huVL3(P07303) (antibody, V domains shown)
VH: B7 VH
VL: B7 VL with N2I, W48L, S57T, V59I, A61D
notes: Humanized 33C12
B10: 33C12huVH1 + huVL1(P07298) (antibody, V domains shown)
VH: B7 VH with E1D, A97T
VL: B7 VL with L21M, F72Y, L79V
notes: Humanized 33C12
B11: 33C12huVH3 + huVL1(P07300) (antibody, V domains shown)
VH: B7 VH with P61A, T78S, S84N
VL: B7 VL with L21M, F72Y, L79V
notes: Humanized 33C12
B12: 33C12huVH3 + huVL3(P07304) (antibody, V domains shown)
VH: B7 VH with P61A, T78S, S84N
VL: B7 VL with N2I, W48L, S57T, V59I, A61D
notes: Humanized 33C12
B13: 33C12huVH2 + huVL1(P07299) (antibody, V domains shown)
VH: B7 VH
VL: B7 VL with L21M, F72Y, L79V
notes: Humanized 33C12

These binders were tested against T1, TNFR2-His (Sino Biological, 10417-H08H, …) (assay: BLI, antibody captured on AHC probe, TNFR2 in solution).
Method in brief: (§1)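 Bio-layer interferometry on an Octet in Basic Kinetics mode. Antibodies at 50 nM in Q buffer (10 mM PBS pH 7.4, 0.02% Tween 20, 0.2% BSA) were held on antibody-capture sensors. The sensors were then placed in recombinant human TNFR2 diluted 2-fold in Q buffer from a top concentration of 100 nM. Kon, koff and Kd come from these kinetic association measurements.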

| Kd | koff | kon | Binder |
| --- | --- | --- | --- |
| 5.28 nM | 0.00449 s⁻¹ | 849000 M⁻¹ s⁻¹ | B1 |
| 1.7 nM | 0.00183 s⁻¹ | 1.08e+06 M⁻¹ s⁻¹ | B2 |
| 2.8 nM | 0.0035 s⁻¹ | 1.25e+06 M⁻¹ s⁻¹ | B3 |
| 3.25 nM | 0.00437 s⁻¹ | 1.34e+06 M⁻¹ s⁻¹ | B4 |
| 3.92 nM | 0.00442 s⁻¹ | 1.13e+06 M⁻¹ s⁻¹ | B5 |
| 4.03 nM | 0.0034 s⁻¹ | 844000 M⁻¹ s⁻¹ | B6 |

Each binder was assayed against T2, human TNFR2 on the cell membrane (assay: flow cytometry, CHO-TNFR2 cells).
Method in brief: (§2)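 CHO cells were transfected with a pcDNA3.4 vector carrying human TNFR2, taken through drug selection and sorted as single clones to give a line that stably overexpresses the receptor. These cells were placed in 96-deep-well plates, incubated with serially diluted antibodies, washed and then stained with a fluorescent anti-IgG secondary antibody. Flow cytometry was run on a Beckman CytoFLEX, and EC50 values were derived from the dilution series.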

| EC50 | Binder |
| --- | --- |
| 0.873 nM | B7 |
| 3.01 nM | B8 |
| 1.12 nM | B9 |
| 0.448 nM | B10 |
| 1.44 nM | B11 |
| 1.08 nM | B12 |
| 2.27 nM | B13 |

The binders below were run against T1, TNFR2-His (Sino Biological, 10417-H08H, …) (assay: BLI, antibody captured on AHC probe, TNFR2-His in solution).
Method in brief: as §1

| Kd | koff | kon | Binder |
| --- | --- | --- | --- |
| 17.8 nM | 0.00279 s⁻¹ | 157000 M⁻¹ s⁻¹ | B7 |
| 11.9 nM | 0.00188 s⁻¹ | 158000 M⁻¹ s⁻¹ | B8 |
| 16.3 nM | 0.00167 s⁻¹ | 102000 M⁻¹ s⁻¹ | B9 |
| 17.7 nM | 0.00171 s⁻¹ | 96400 M⁻¹ s⁻¹ | B10 |
| 12.7 nM | 0.00223 s⁻¹ | 175000 M⁻¹ s⁻¹ | B11 |
| 48.7 nM | 0.00368 s⁻¹ | 75600 M⁻¹ s⁻¹ | B12 |
| 15.1 nM | 0.0013 s⁻¹ | 86100 M⁻¹ s⁻¹ | B13 |

Each binder was assayed against T2, human TNFR2 on the cell membrane (assay: flow cytometry on CHO-TNFR2 cells).
Method in brief: as §2

| EC50 | Binder |
| --- | --- |
| 0.0096 µg/mL and 0.064 nM | B1 |
| 0.0587 µg/mL and 0.394 nM | B2 |
| 0.0217 µg/mL and 0.145 nM | B3 |
| 0.0129 µg/mL and 0.087 nM | B4 |
| 0.0158 µg/mL and 0.106 nM | B5 |
| 0.011 µg/mL and 0.073 nM | B6 |

These binders were tested against T1, TNFR2-His (Sino Biological, 10417-H08H, …) (assay: ELISA, plate coated with TNFR2-His (second test)).
Method in brief: (§3)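 EC50 values come from antibody dilution series tested by ELISA. Plates were coated with recombinant human TNFR2 bearing a C-terminal His tag and blocked before the serially diluted antibodies were added. Binding was detected with an enzyme-labelled anti-IgG secondary antibody, TMB development and a microplate reader.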

| EC50 | Binder |
| --- | --- |
| 0.0322 µg/mL and 0.216 nM | B1 |
| 0.0262 µg/mL and 0.176 nM | B2 |
| 0.0273 µg/mL and 0.183 nM | B3 |
| 0.0353 µg/mL and 0.237 nM | B4 |
| 0.0284 µg/mL and 0.19 nM | B5 |
| 0.0279 µg/mL and 0.187 nM | B6 |

These binders were tested against T1, TNFR2-His (Sino Biological, 10417-H08H, …) (assay: ELISA, plate coated with TNFR2-His).
Method in brief: as §3

| EC50 | Binder |
| --- | --- |
| 0.132 µg/mL | B7 |
| 0.303 µg/mL | B8 |
| 0.115 µg/mL | B9 |
| 0.0646 µg/mL | B10 |
| 0.161 µg/mL | B11 |
| 0.0528 µg/mL | B12 |
| 0.218 µg/mL | B13 |

Biological target: T2, human TNFR2 on the cell membrane
Assay: flow cytometry on CHO-TNFR2 cells
Remark: another data set of the same source
Method in brief: as §2

| EC50 | Binder |
| --- | --- |
| 0.13 µg/mL | B7 |
| 0.449 µg/mL | B8 |
| 0.167 µg/mL | B9 |
| 0.0669 µg/mL | B10 |
| 0.214 µg/mL | B11 |
| 0.161 µg/mL | B12 |
| 0.34 µg/mL | B13 |

Each binder was assayed against T1, TNFR2-His (Sino Biological, 10417-H08H, …) (assay: ELISA, coated TNFR2-His).
Method in brief: as §3

| EC50 | Binder |
| --- | --- |
| 0.886 nM | B7 |
| 2.03 nM | B8 |
| 0.771 nM | B9 |
| 0.433 nM | B10 |
| 1.08 nM | B11 |
| 0.354 nM | B12 |
| 1.46 nM | B13 |
